Residue numbers refer to the chain shown, from its start. Names may count otherwise.

Substrate in data set [1]: CCCC(=O)CC(=O)SCCNC(=O)CCNC(=O)[C@H](O)C(C)(C)COP(=O)(O)OP(=O)(O)OC[C@H]1O[C@@H](n2cnc3c(N)ncnc32)[C@H](O)[C@@H]1OP(=O)(O)O
Briefly: thiolysis, decrease in A303 of Mg-keto-acyl-CoA complex, Michaelis-Menten fit. The data set is classed as biochemical, Cupriavidus necator. Particulars: C6 thiolysis, 200 μM CoASH, 10 mM MgCl2, 100 mM Tris pH 7.0.

Substrate in data set [2]: CC(=O)CC(=O)SCCNC(=O)CCNC(=O)[C@H](O)C(C)(C)COP(=O)(O)OP(=O)(O)OC[C@H]1O[C@@H](n2cnc3c(N)ncnc32)[C@H](O)[C@@H]1OP(=O)(O)O
Described as above. Particulars: C4 thiolysis, 200 μM CoASH, 10 mM MgCl2, 100 mM Tris pH 7.0. The data set is classed as biochemical, Cupriavidus necator.

B1: BktB (Cupriavidus necator H16; M158A) (protein)
chain: MTREVVVVSGVRTAIGTFGGSLKDVAPAELGALVVREALARAQVSGDDVGHVVFGNVIQTEPRDMYLGRVAAVNGGVTINAPALTVNRLCGSGLQAIVSAAQTILLGDTDVAIGGGAESMSRAPYLAPAARWGARMGDAGLVDMMLGALHDPFHRIHAGVTAENVAKEYDISRAQQDEAALESHRRASAAIKAGYFKDQIVPVVSKGRKGDVTFDTDEHVRHDATIDDMTKLRPVFVKENGTVTAGNASGLNDAAAAVVMMERAEAERRGLKPLARLVSYGHAGVDPKAMGIGPVPATKIALERAGLQVSDLDVIEANEAFAAQACAVTKALGLDPAKVNPNGSGISLGHPIGATGALITVKALHELNRVQGRYALVTMCIGGGQGIAAIFERI
Consider B1, for which, in data set [1], the Km stood at 17 µM, the kcat was 16.7 s⁻¹ and the kcat/Km was found to be 982000 M⁻¹ s⁻¹. In data set [2], the Km turned out to be 14.1 µM, the catalytic constant (kcat) amounted to 4.63 s⁻¹ and the kcat/Km was found to be 328000 M⁻¹ s⁻¹.

B2: BktB (Cupriavidus necator H16) (protein)
chain: B1 chain with A158M
Regarding B2, in data set [1], the Km was 15.2 µM, the kcat is 4.06 s⁻¹ and the kcat/Km was determined as 267000 M⁻¹ s⁻¹. Also, in data set [2], the Km was determined as 17.5 µM, the kcat was found to be 148 s⁻¹ and the kcat/Km amounted to 8.45e+06 M⁻¹ s⁻¹.

Values taken from paper PMC6131064.
